Assay results from publication PMC6143631 (Nature Communications, 2018).

T1: Ctr9^(1–270) (S. cerevisiae, UniProt P89105 1-270)
T1 construct: S. cerevisiae Ctr9, residues 1-270
T1 sequence (looked up): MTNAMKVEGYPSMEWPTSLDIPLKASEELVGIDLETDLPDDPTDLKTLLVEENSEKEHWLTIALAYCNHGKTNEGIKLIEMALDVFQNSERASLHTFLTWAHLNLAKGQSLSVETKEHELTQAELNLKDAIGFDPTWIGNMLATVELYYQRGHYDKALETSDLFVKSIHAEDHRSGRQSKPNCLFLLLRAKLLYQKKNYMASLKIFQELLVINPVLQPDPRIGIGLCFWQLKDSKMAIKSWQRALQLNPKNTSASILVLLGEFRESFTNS

T2: Ctr9^(1–313) (S. cerevisiae, UniProt P89105 1-313)
T2 construct: In the crystal it stood as part of the single-chain fusion m36; source: E. coli BL21(DE3) Codon Plus, co-expressed with a Paf1 fragment, purified (Ni-NTA, SEC)
T2 sequence (looked up): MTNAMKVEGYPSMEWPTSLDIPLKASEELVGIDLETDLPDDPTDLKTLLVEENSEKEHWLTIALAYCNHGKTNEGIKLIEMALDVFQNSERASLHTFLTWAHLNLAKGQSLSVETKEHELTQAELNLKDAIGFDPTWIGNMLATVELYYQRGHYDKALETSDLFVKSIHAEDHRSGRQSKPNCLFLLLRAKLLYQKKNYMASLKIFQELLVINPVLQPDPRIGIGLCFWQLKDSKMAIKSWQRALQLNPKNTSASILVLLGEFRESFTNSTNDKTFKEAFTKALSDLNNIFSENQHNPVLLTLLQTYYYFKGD

B1: Paf1^(34–103) (domain or fragment, S. cerevisiae, UniProt P38351 34-103, looked up)
chain: ETNADSSQLINSLYIKTNVTNLIQQDEDLGMPVDLMKFPGLLNKLDSKLLYGFDNVKLDKDDRILLRDPR
notes: In the crystal it stood as part of the single-chain fusion m36; source: E. coli BL21(DE3) Codon Plus, co-expressed with a Ctr9 fragment, purified (Ni-NTA, SEC)
B2: Paf1^(59–103) (domain or fragment, S. cerevisiae, UniProt P38351 59-103, looked up)
chain: DEDLGMPVDLMKFPGLLNKLDSKLLYGFDNVKLDKDDRILLRDPR

Columns and labels:
Ctr9^(1–270) = biological target: T1, Ctr9^(1–270); test: AUC; sedimentation velocity, 42,000 rpm, 4 °C, interference detection; 20 mM HEPES pH 7.5, 150 mM NaCl, 1 mM EDTA, 1 mM DTT; details: both partners purified
Ctr9^(1–313) = biological target: T2, Ctr9^(1–313); test: SEC; two fragments co-expressed in E. coli and co-purified; analytical size-exclusion column with SDS-PAGE of the fractions; details: both partners purified

| Binder | stoichiometry N (Ctr9^(1–270)) | binding result (Ctr9^(1–313)) |
| --- | --- | --- |
| B1 | 1 | – |
| B2 | – | binds |
